{"source": "patent US20250042992A1", "about": "(University of California, published 2025)", "binders": {"B1": {"name": "humanized anti-DLK1 antibody 04-0561-F1 (IgG1) (antibody, V domains shown)", "VH": "QVQLQESGPGLVKPSETLSLTCTVSGFSLSIYSVHWVRQPPGKGLEWIGLIWGGGSTDYNPSLKSRVTISKDTSKNQVSLKLSSVTAADTAVYYCARKEGNYLWFAYWGQGTLVTVSS", "VL": "DIVMTQSPDSLAVSLGERVTMNCKSSQSLLQSSNQKNYLAWYQQKPGQPPKLLVYFASTRESGVPDRFSGSGSGTDFTLTISSVQAEDVAVYYCQQHYSIPLTFGQGTKLEIKR"}}, "target": "T1, monkey DLK1 fused to mGFP, overexpressed on HEK293T cells (monkey (crab-eating macaque), UniProt A0A2K5TMQ6 24-383)", "T1 construct": "whole, on cells; also called crab-eating macaque DLK1; not shown: mGFP fluorescent protein fused to DLK1", "T1 sequence": "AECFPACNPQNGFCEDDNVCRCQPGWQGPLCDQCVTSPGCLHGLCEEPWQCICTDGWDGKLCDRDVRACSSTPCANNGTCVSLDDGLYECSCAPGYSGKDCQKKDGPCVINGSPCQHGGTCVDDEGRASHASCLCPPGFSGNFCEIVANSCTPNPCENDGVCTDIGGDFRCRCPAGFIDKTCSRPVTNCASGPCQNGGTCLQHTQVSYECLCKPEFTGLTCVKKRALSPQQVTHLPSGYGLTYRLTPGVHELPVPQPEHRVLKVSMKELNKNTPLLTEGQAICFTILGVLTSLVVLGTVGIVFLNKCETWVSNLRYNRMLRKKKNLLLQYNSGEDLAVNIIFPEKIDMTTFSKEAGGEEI", "test": "KinExA on HEK293T DLK1mGFP Monkey mass pop cells detached by Versene; Error% 2.87; 95% CI 1.33nM - 3.45nM; equilibrium curves 400pM, 50nM", "data": [{"binder": "B1", "values": [{"measurement": "Kd", "value": 2.19, "unit": "nM"}]}]}
